We go through eight molecules from US20050079574A1 (Genentech, published 2005).

To fix the notation:
B1: RIG scaffold with mutation T57E (VHH, name in Kabat numbering)
VHH: DVQLQESGGGLVQAGGSLRLSCAASGRTGSTYDMGWFRQAPGKERESVAAINWDSAREYYASSVRGRFTISRDNAKKTVYLQMNSLKPEDTAVYTCGAGRIGRSVFNLRRESWVTWWGQGTQVTVSSAGGMDYKDDDDK
B2: VLK scaffold (VHH) (VHH)
VHH: DVQLQESGGGLVQAGGSLRLSCAASGRTGSTYDMGWFRQAPGKERESVAAINWDSARTYYASSVRGRFTISRDNAKKTVYLQMNSLKPEDTAVYTCGAGVLKRRGSSVAIFTRVQSWGQGTQVTVSSAGGMDYKDDDDK
B3: LLR scaffold (VHH) (VHH)
VHH: DVQLQESGGGLVQAGGSLRLSCAASGRTGSTYDMGWFRQAPGKERESVAAINWDSARTYYASSVRGRFTISRDNAKKTVYLQMNSLKPEDTAVYTCGAGLLRRGVNATPNWFGLVGWGQGTQVTVSSAGGMDYKDDDDK
B4: RLV scaffold (VHH) (VHH)
VHH: DVQLQESGGGLVQAGGSLRLSCAASGRTGSTYDMGWFRQAPGKERESVAAINWDSARTYYASSVRGRFTISRDNAKKTVYLQMNSLKPEDTAVYTCGAGRLVNGLSGLVSWEMPLAWGQGTQVTVSSAGGMDYKDDDDK
B5: RIG scaffold (VHH) (VHH)
VHH: DVQLQESGGGLVQAGGSLRLSCAASGRTGSTYDMGWFRQAPGKERESVAAINWDSARTYYASSVRGRFTISRDNAKKTVYLQMNSLKPEDTAVYTCGAGRIGRSVFNLRRESWVTWWGQGTQVTVSSAGGMDYKDDDDK
notes: also called RIG-Parent Scaffold; RIG VHH domain
B6: llama anti-HCG monobody variable heavy chain (VHH), wild type (VHH)
VHH: DVQLQESGGGLVQAGGSLRLSCAASGRTGSTYDMGWFRQAPGKERESVAAINWDSARTYYASSVRGRFTISRDNAKKTVYLQMNSLKPEDTAVYTCGAGEGGTWDSWGQGTQVTVSSAGGMDYKDDDDK
notes: also called wild type anti-HCG scaffold; llama a-HCG
B7: RIG scaffold alanine point mutant S100A (VHH, name in Kabat numbering)
VHH: DVQLQESGGGLVQAGGSLRLSCAASGRTGSTYDMGWFRQAPGKERESVAAINWDSARTYYASSVRGRFTISRDNAKKTVYLQMNSLKPEDTAVYTCGAGRIGRAVFNLRRESWVTWWGQGTQVTVSSAGGMDYKDDDDK
B8: RIG scaffold alanine point mutant V100jA (VHH, name in Kabat numbering)
VHH: DVQLQESGGGLVQAGGSLRLSCAASGRTGSTYDMGWFRQAPGKERESVAAINWDSARTYYASSVRGRFTISRDNAKKTVYLQMNSLKPEDTAVYTCGAGRIGRSVFNLRRESWATWWGQGTQVTVSSAGGMDYKDDDDK

The first assay addresses T1, Protein A (UniProt P38507 37-477).
T1 construct: also called Protein A (Sigma)
The assay can be described thus: Biacore.
Take B1: the binding result was “no binding”.

A further assay deals with T1, Protein A. Briefly: BiaCore 3000, Protein A on CM5 chip, steady state fit. On the procedure:
The affinity for Protein A for each of the individual clones was determined using a BiaCore 3000. Protein A was coated onto CM5 chip, as was BSA and VEGF. The latter two proteins were used as negative controls. Binding isotherms were calculated the steady state response differentials for a series of protein concentrations. The equilibrium dissociation constant (Kd) was determined by fitting the resulting curves (KaleidaGraph, Synergy Software) to the following equation: Ra=[…](Rmax−Rmin)/((1+C/Kd)ⁿ) Where “Ra” is the measured response differential, “Rmax” is the maximal response differential, “Rmin” the minimal response differential and “C” is the ligand concentration. Analysis of NNS Library
In general terms: In SPR one partner is held on a chip, and binding of the other changes the refractive index at the surface.
The term Kd denotes the equilibrium constant for the complex coming apart. Regarding B2, the Kd was 900 nM.

Turning to B3, the Kd stood at 3300 nM.

On to B4, for which the Kd was 1800 nM.

B5: the Kd came out at 800 nM.

For B6, the Kd was 1600 nM.

For the next assay, the target named is T1, Protein A. Briefly: BiaCore, Protein A on CM5 chip.
As for B5, the Kd came out at 800 nM.

Molecule B7 returned a Kd of 600 nM.

For the molecule B8, the Kd is 800 nM.
